Reference: US6495144B2, “EBNA2 peptides and methods of using same” (Johns Hopkins University School of Medicine, priority 1996, dated 2002)
Residue numbers refer to the chain shown, from its start.

B1: SR360VD (PKC): EBNA2 with mutation of the putative PKC phosphorylation site (protein)
chain: MPTFYLALHGGQTYHLIVDTDSLGNPSLSVIPSNPYQEQLSDTPLIPLTIFVGENTGVPPPLPPPPPPPPPPPPPPPPPPPPPPPPPPSPPPPPPPPPPPQRRDAWTQEPSPLDRDPLGYDVGHGPLASAMRMLWMANYIVRQSRGDRGLILPQGPQTAPQARLVQPHVPPLRPTAPTILSPLSQPRLTPPQPLMMPPRPTPPTPLPPATLTVPPRPTRPTTLPPTPLLTVLQRPTELQPTPSPPRMHLPVLHVPDQSMHPLTHQSTPNDPDSPEPRSPTVFYNIPPMPLPPSQLPPPAAPAQPPPGVINDQQLHHLPSGPPWWPPICDPPQPSKTQGQSRGQSRGRGRGRGRGRGKGKVDDKQRKPGGPWRPEPNTSSPSMPELSPVLGLHQGQGAGDSPTPGPSNAAPVCRNSHTATPNVSPIHEPESHNSPEAPILFPDDWYPPSIDPADLDESWDYIFETTESPSSDEDYVEGPSKRPRPSIQ
B2: LGL389SRT (CR7): EBNA2 with LGL at position 389 in CR7 changed to SRT (protein)
chain: B1 chain with V360S, D361R, L389S, G390R, L391T

Tests used:
[1] = biological target: T1, CBF1/RBPJk (Homo sapiens, UniProt Q06330); assay: EMSA of EBNA2/CBF1 complex formation with in vitro translated EBNA2 peptides; format: binding; conditions: for effect in reducing the amounts of EBNA2/CBF1 complex formed: fold, in words
T1 construct: EMSA using CBF1 purified by heparin-agarose chromatography; endogenous in cells; host or cells: CA46 cells (fractionated extract, heparin-agarose)
Source text: FIG. 3 is an autoradiogram that depicts the effect of mutations on the ability of an EBNA2 (i.e., E2) peptide comprising amino acids 252-425 to interact with CBF1/RBPJk: probe (lane 1); E2 only (lane 2); lysate (lane 3); CBF1 (lane 4); CBF1 and lysate (lane 5); CBF1 and E2 252-425 (lane 6); CBF1 and del376-425 (lane 7); CBF1 and del343-425 (lane 8); CBF1 and del252-366 (lane 9); CBF1 and del252-309, del398-425 (lane 10); CBF1 and del344-357 (lane 11); CBF1 and II307SR (CR5) (lane 12); CBF1 and GP320SR (CR6) (lane 13); CBF1 and WW323SR (CR6) (lane 14); CBF1 and PI326SR (CR6) (lane 15); CBF1 and SR360VD (PKC) (lane 16); and CBF1 and LGL389SRT (CR7) (lane 17). Results of an EMSA using CBF1 purified by heparin-agarose chromatography and a 30-base pair oligonucleotide probe containing the Cp CBF1 binding site (Ling et al. (1993a), supra) are shown. The wild-type EBNA2 and mutant EBNA2 peptides spanning amino acids 252-425 were in vitro transcribed and translated, and equimolar amounts were added to the binding reactions. Addition of unprogrammed reticulocyte lysate to the CBF1 extract (+lysate) produced a minor bandshift that migrated in the range of the E2/CBF1 complex. The EBNA2/CBF1 complexes (i.e., E2/CBF1 complexes) vary in mobility depending on the size of the added EBNA2 peptide.
FIG. 6 is an EMSA that compares the ability of type A EBNA2 (i.e., EBNA2 comprising amino acids 252-425) and the homologous domains of type B (i.e., EBNA2 comprising amino acids 216-392) and HVP EBNA2 (i.e., HBP EBNA2 comprising amino acids 288-470) to form complexes with CBF1/RBPJk. The EBNA2 peptides and CBF1/RPBPJk were prepared by in vitro transcription and translation. EBNA2 peptides were added with two-fold increases in amount (black triangles) to a binding mixture containing a constant amount of CBF1/RBPJk and a 30-base pair Cp CBF1 binding site probe. Symbols: P, probe only; R, reticulolysate.
The relative positions of the various functional domains the EBNA2 protein are depicted in FIG. 1. To define the amino acids required for interaction with CBF1, various synthetic peptides comprising the promoter targeting domain (i.e., the CBF1/RBPJk interaction domain) were constructed. The truncated and mutated peptides diagrammed in FIG. 2 were synthesized by in vitro transcription-translation, and were tested for their ability to form complexes with CBF1 that could be detected in an electrophoretic mobility shift assay (EMSA) (Ling et al., J. Virol., 69, 1944-1950 (1995)). The expressed peptides were tested using a fractionated extract of EBV negative lymphoblastoid CA46 cells (American Type Culture Collection, Rockville, Md.). The peptides were labeled with ^35S-methionine, and their integrity was confirmed by sodium dodecylsulfate sulfate-polyacrylamide gel electrophoresis (SDS-PAGE). To ensure that equal amounts of the EBNA2 peptides were added to each binding reaction mixture, the SDS-PAGE bands were quantitated using a Molecular Dynamics Phosphorimager, and the volume of the samples was adjusted on the basis of peptide size and the number of methionine residues.

[2] = tested on: EBV latency C promoter (Cp-CAT); assay: Cp-CAT transactivation by EBNA2 effector DNAs cotransfected in DG75 cells; format: cell-based, Epstein-Barr virus; conditions: for transactivation of Cp-CAT, dose-response, in words: 0-2.0 μg effector DNA, 2 μg target; for % Transactivation: relative EBNA2 transactivation of the Cp, at DNA concentrations giving 50% acetylation for wild-type EBNA2, mutations in full-length EBNA2
Experimental: FIGS. 4A-4B are graphs that depict μg effector versus % acetylation for transactivation in DG75 cells of a Cp-CAT construction (Ling et al. (1993b), supra) cotransfected at 2 μg with increasing amounts (i.e., 0, 0.25, 0.5, 1.0 and 2.0 μg) of the indicated EBNA2 effector DNAs. Immunoblot analysis confirmed the equivalent expression of the different EBNA2 effector constructions in transfected cells.
FIGS. 7A-7B are graphs that depict μg effector versus fold-induction for cotransfection assays comparing the ability of type A EBNA2 and type B EBNA2 to transactivate expression from Cp-CAT (FIG. 7A) and CD23p-CAT (FIG. 7B) (Ling et al. (1994), supra) in DG75 cells. The target plasmids were transfected at a constant amount (2 μg) and the effector DNAs at increasing amounts of 0, 0.25, 0.5, 1.0 and 2.0 μg.
In order to correlate the effect of the mutations on CBF1 interaction measured in the in vitro binding assays with the effects on CBF1 interaction in vivo in cultured cells, the point mutations and the glycine-arginine deletion were incorporated into full-length EBNA2 proteins which were used to study EBNA2 targeting in transactivation assays. The mutant proteins were synthesized in equal abundance in transfected cells as assessed by Western blot analysis. FIGS. 4A and 4B compare the ability of wild-type and mutant EBNA2 proteins to transactivate expression from the EBV latency C promoter in a dose-response assay (Ling et al. (1993b), supra).

T1 sequence (Q06330 whole entry): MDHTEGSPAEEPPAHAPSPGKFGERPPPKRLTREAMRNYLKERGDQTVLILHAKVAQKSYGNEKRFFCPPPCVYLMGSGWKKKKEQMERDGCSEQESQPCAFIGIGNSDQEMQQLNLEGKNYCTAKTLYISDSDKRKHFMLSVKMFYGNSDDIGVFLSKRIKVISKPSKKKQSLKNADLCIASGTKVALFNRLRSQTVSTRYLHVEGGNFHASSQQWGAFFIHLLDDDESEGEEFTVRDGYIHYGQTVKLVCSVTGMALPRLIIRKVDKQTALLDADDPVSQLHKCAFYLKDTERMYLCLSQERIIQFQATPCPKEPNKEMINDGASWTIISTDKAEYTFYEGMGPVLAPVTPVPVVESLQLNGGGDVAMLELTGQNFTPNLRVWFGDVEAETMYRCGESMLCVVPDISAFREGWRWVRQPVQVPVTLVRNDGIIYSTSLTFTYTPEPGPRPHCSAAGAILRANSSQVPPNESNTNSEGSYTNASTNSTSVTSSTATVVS

Molecule | reduction in EBNA2/CBF1 complex formation ([1]; 252-425 peptide with mutation, relative to wild-type peptide) [%] | effect in reducing the amounts of EBNA2/CBF1 complex formed [1] | transactivation of Cp-CAT, dose-response, in words [2] | % Transactivation [2] [%]
B1 | 40 | approximately two-fold | did not affect transactivation | 110
B2 |  | approximately two-fold | did not affect transactivation | 100
